Key:
[1] = target: LAT-FYFF (monovalent LAT1Y, residue 48-233), phosphorylated (UniProt O43561); experiment: ITC
[2] = target: LAT-FYFF (monovalent LAT1Y, residue 48-233), phosphorylated (UniProt O43561); experiment: single-molecule dwell time analysis

- Kd [1]: 463 nM
- dH [1]: -15 kcal/mol
- koff [2]: 3.4 s⁻¹
- relative on-rate (against LAT-FFFY:Grb2 = 1) [2]: 1.25
Substance: Grb2-Alexa Fluor 647 (from UniProt P62993 1-217) (natural protein)

Reference: publication PMC5761276
